Source: patent publication US10624964, “Methods and compositions for stimulating immune response using potent immunostimulatory RNA motifs” (The Trustees of the University of Pennsylvania)

Target: T1, RIG-I full length (UniProt O95786 O95786:1-925)
T1 sequence: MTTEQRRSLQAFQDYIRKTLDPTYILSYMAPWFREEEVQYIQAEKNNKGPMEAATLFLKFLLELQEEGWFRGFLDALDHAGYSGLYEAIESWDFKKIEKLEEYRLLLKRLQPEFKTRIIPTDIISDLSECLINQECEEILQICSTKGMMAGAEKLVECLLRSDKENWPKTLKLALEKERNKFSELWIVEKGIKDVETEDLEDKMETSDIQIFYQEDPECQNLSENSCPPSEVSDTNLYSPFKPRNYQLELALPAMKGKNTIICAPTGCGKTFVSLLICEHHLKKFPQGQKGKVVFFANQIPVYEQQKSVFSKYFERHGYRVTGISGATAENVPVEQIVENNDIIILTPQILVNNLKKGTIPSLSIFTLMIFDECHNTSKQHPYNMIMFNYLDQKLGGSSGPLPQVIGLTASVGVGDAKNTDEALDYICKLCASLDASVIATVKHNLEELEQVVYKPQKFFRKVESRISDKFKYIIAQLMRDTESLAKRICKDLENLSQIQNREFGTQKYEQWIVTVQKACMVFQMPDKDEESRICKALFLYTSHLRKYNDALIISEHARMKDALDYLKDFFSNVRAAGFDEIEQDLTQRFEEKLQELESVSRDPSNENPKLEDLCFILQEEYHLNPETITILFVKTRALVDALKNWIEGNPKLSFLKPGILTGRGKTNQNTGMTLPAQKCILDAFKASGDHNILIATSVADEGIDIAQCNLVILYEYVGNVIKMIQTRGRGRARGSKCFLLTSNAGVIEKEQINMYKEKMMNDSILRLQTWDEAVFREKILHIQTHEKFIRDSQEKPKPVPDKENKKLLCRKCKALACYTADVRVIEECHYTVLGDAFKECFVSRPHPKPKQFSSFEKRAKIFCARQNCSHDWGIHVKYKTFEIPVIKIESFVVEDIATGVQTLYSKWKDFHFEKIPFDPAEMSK
Test: EMSA; with ATP; 6 pmol RNA, 0-20 pmol RIG-I; affinity equivalent to poly U/UC
Conditions: stem-loop motif 70-114, complementary 5' and 3' ends

B1: DVG-268 ivtRNA (ssRNA)
RNA: ACCAGACAAGAGUUUAAGAGAUAUGUAUCCUUUUAAAUUUUCUUGUCUUCUUGUAAGUUUUUCUUGCUAUUGUCAUAUGGAUAAGUCCAAGACUAUCUUUAUCUAUGUCCACAAGAUUGGUAACUGGGUCAUUCCCUGACCAGAAGUUUGAAGCAAGACUUCCCGGUACCUGGAAGUCUUGGACUUAUCCAUAUGACAAUAGUAAGAAAAACUUACAAGAAGACAAGAAAAUUUAAUAGGAUACAUAUCUCUUAAACUCUUGUCUGGU
modifications: 5'-triphosphate (T7 transcript)
binding result: binds
